Results: PMC6030205, “The REN4 rheostat dynamically coordinates the apical and lateral domains of Arabidopsis pollen tubes” (Nature Communications, 2018)

Target: T1, MBP-REN4 (Arabidopsis, UniProt O48716 1-465)
T1 construct: REN4, Arabidopsis, AT2G26490; full length REN4 CDS with stop codon (465 aa) in pDest-566; CDS with stop codon in pDest-566 (Addgene) implies an N-terminal MBP; that vector may also add a His6 tag (surmise); also called REN4 fused with MBP; source: E. coli, purified (amylose beads)
T1 sequence (looked up): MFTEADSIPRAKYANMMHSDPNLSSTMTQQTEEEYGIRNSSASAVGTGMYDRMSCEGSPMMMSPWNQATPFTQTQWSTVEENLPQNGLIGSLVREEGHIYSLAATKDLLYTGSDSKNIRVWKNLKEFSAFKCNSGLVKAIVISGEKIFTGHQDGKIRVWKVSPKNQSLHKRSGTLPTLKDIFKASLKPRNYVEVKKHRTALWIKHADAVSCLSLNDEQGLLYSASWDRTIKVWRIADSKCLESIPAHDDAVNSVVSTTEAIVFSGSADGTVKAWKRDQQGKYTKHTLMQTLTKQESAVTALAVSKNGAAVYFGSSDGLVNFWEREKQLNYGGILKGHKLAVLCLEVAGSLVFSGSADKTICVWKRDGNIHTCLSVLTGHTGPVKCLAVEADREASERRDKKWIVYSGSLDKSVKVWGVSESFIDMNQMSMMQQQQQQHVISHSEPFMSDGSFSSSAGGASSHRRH
Experiment: pull-down; MBP-REN4 on amylose agarose beads; about 1 ug GST-ROP1 preloaded with 1 mM GTP or GDP; binding buffer 50 mM Tris-HCl pH 7.5, 10 mM MgCl2, 1 mM DTT, 10 mg/ml BSA, 5 mM EDTA; 4 C, 1 h; washes with 1% Triton X-100; anti-GST and anti-MBP blots
Conditions: both partners purified

B1: GST-CA-ROP1 (G15V), GTP-bound constitutively active form of ROP1 (natural protein)
chain: not shown
notes: ROP1, Arabidopsis; full length ROP1 CDS with stop codon, mutated G15V, in pDest15; Incubated with 1 mM GTP before the pull-down; source: E. coli, purified (glutathione-agarose); not shown: GST, N-terminal, kept
B1: binds.
